Changes are numbered by the printed parent chain. In names and notes the source's numbering stands.
T1: human IL-2Rβ (human, UniProt P14784 27-240, limits assumed)
T1 construct: also called hIL-2Rβ; IL-2 receptor beta
T1 sequence (looked up): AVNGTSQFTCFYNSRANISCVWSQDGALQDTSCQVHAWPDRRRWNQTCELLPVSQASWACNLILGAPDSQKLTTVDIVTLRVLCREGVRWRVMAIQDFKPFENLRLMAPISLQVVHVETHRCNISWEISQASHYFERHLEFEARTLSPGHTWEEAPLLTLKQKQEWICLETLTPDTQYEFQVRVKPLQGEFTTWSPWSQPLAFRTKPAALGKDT

B1: hIL-15 V49R/K11W (ligand)
chain: NWVNVISDLKWIEDLIQSMHIDATLYTESDVHPSCKVTAMKCFLLELQRISLESGDASIHDTVENLIILANNSLSSNGNVTESGCKECEELEEKNIKEFLQSFVHIVQMFINTGGGGSGHHHHHHHHGGGLNDIFEAQKIEWHE
B2: hIL-15 V49R/N1R (ligand)
chain: B1 chain with N1R, W11K
B3: hIL-15 V49R/V31K (ligand)
chain: B1 chain with W11K, V31K
B4: xmPD-1-hIL15Rasu-hIL15(E64Q/D30N N4K) (other)
heavy 1: HHHHHHHHGGGGSGSGGEVQLVESGGGLVKPGGSLELSCAASGFTFSSYWMSWVRQAPEKGLEWVAAISPSGGSTYYADSVKGRFTISRDNAKNTLFLQMTSLRSEDTAMYYCAKESWGAYYDLWGQGTTVTVSSASTKGPSVFPLAPCSRSTSESTAALGCLVKDYFPEPVTVSWNSGALTSGVHTFPAVLQSSGLYSLSSVVTVPSSNFGTQTYTCNVDHKPSNTKVDKTVERKCRVRCPRCPAPPVAGPSVFLFPPKPKDTLMISRTPEVTCVVVAVSHEDPEVQFNWYVDGVEVHNAKTKPREEQFNSTFRVVSVLTVVHQDWLNGKEYKCKVSNKGLPSSIEKTISKTKGQPREPQVYTLPPSREEMTKNQVSLTCLVKGFYPSDIAVEWESNGQPENNYKTTPPMLDSDGSFFLYSRLTVDKSRWQQGNVFSCSVMHEALHNHYTQKSLSLSPGK
heavy 2: EVQLVESGGGLVKPGGSLELSCAASGFTFSSYWMSWVRQAPEKGLEWVAAISPSGGSTYYADSVKGRFTISRDNAKNTLFLQMTSLRSEDTAMYYCAKESWGAYYDLWGQGTTVTVSSASTKGPSVFPLAPCSRSTSESTAALGCLVKDYFPEPVTVSWNSGALTSGVHTFPAVLQSSGLYSLSSVVTVPSSNFGTQTYTCNVDHKPSNTKVDKTVERKCEVECPECPAPPVAGPSVFLFPPKPKDTLMISRTPEVTCVVVAVSHEDPEVQFNWYVDGVEVHNAKTKPREEQFNSTFRVVSVLTVVHQDWLNGKEYKCKVSNKGLPSSIEKTISKTKGQPREPQVYTLPPSREEMTKNQVSLTCEVKGFYPSDIAVEWESNGQPENNYKTTPPMLDSDGSFFLYSKLTVDKSRWQQGNVFSCSVMHEALHNHYTQKSLSLSPGSGGGGGTSATATPGAITCPPPMSVEHADIWVKSYSLYSRERYICNSGFKRKAGTSSLTECVLNKATNVAHWTTPSLKCIRDPALVHQRPAPPSGGSGGGGSGGGSGGGGSGGNWVKVISDLKKIEDLIQSMHIDATLYTESNVHPSCKVTAMKCFLLELQVISLESGDASIHDTVQNLIILANNSLSSNGNVTESGCKECEELEEKNIKEFLQSFVHIVQMFINT
light: DIVMTQSPSSLSVSAGDKVTMSCRASQGISSWLAWYQQKPWQPPKLLIYKASTLESGVPDRFTGSGSGTDFTLTISSVQAEDLAVYYCQQSYSTPWTFGGGTKLEIKGTVAAPSVFIFPPSDEQLKSGTASVVCLLNNFYPREAKVQWKVDNALQSGNSQESVTEQDSKDSTYSLSSTLTLSKADYEKHKVYACEVTHQGLSSPVTKSFNRGEC
notes: not restated for this mutant
B5: xmPD-1-hIL15Rasu-hIL15(E64Q/D30N/I68S/M109A) (other)
heavy 1: B4 heavy 1
heavy 2: B4 heavy 2 with K559N, I623S, M664A
light: B4 light
notes: not restated for this mutant
B6: xmPD-1-hIL15Rasu-hIL15(E64Q/D30N/M109A) (other)
heavy 1: B4 heavy 1
heavy 2: B4 heavy 2 with K559N, M664A
light: B4 light
notes: not restated for this mutant
B7: xmPD-1-hIL15Rasu-hIL15(E64Q/D30N/N4K/M109A) (other)
heavy 1: B4 heavy 1
heavy 2: B4 heavy 2 with M664A
light: B4 light
notes: not restated for this mutant
B8: hIL-15 V49R/D30G (ligand)
chain: B1 chain with W11K, D30G
B9: hIL-15 V49R/H32F (ligand)
chain: B1 chain with W11K, H32F
B10: hIL-15 V49R/N4Y (ligand)
chain: B1 chain with N4Y, W11K
B11: hIL-15 V49R/D30P (ligand)
chain: B1 chain with W11K, D30P
B12: hIL-15 V49R/I68P (ligand)
chain: B1 chain with W11K, I68P
B13: hIL-15 V49R/L69K (ligand)
chain: B1 chain with W11K, L69K
B14: hIL-15 V49R/L69P (ligand)
chain: B1 chain with W11K, L69P

Target: T2, human IL-15Rα (human, UniProt Q13261 31-205, limits assumed)
T2 construct: also called hIL-15Rα; IL-15 receptor alpha
T2 sequence (Q13261 31-205 limits assumed): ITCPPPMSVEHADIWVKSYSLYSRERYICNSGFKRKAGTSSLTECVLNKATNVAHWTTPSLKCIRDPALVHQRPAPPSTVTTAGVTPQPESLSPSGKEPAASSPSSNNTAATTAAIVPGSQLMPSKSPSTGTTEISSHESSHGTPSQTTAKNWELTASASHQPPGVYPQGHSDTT
Experiment: SPR, steady state

Binder | Kd [nM]
B1 | 361
B2 | 243

Target: T1, human IL-2Rβ
Experiment: SPR, steady state

Binder | Kd [nM]
B3 | > 500

Target: T2, human IL-15Rα
Experiment: SPR 37C, fusion captured by anti-human Fc
Protocol: (§1) Anti-human Fc sensor chips were prepared at 25° C. with a running buffer of 10 mM HEPES, 150 mM NaCl, 0.05% (v/v) Tween-20, pH 7.4. All surfaces of a Biacore CM4 sensor chip were activated with a 1:1 (v/v) mixture of 400 mM EDC and 100 mM NHS for 7 minutes, at a flow rate of 10 μL/min. An anti-human Fc reagent (Goat anti-human IgG Fc-γ specific, SouthernBiotech, Birmingham, Ala., Catalog #2014-01) was diluted to 50 μg/mL in 10 mM sodium acetate (pH 4.5) and injected on all flow cells for 7 minutes at 20 μL/min. All flow cells were blocked with 100 mM ethylenediamine in 200 mM Borate buffer pH 8.5 for 7 minutes at 10 μL/min.
(§2) All protein interaction experiments were performed at 37° C. using a running buffer of 10 mM HEPES, 150 mM NaCl, 0.05% (v/v) Tween-20, pH 7.4, 1 mg/mL BSA. Anti-PD-1-hIL-15 fusion proteins were captured at 10 μg/mL at a flow rate of 10 μL/min for 2 minutes. Different fusion proteins were captured in flow cells 2, 3 and 4. No protein was captured onto flow cell 1 which was used as a reference surface. […] After each analyte injection, dissociation was monitored for 5 minutes followed by regeneration of all flow cells with three 60-second injections of 75 mM phosphoric acid. […] For kinetic analysis, the double-referenced sensorgrams were fit globally to a simple 1:1 Langmuir with mass transport binding model using Biacore T200 Evaluation Software version 2.0. For steady-state affinity analysis, the double-referenced equilibrium binding responses were fit with a 1:1 Langmuir steady-state model using Biacore T200 Evaluation Software version 2.0.

Binder | binding result
B4 | no binding (tested: 3000 nM)
B5 | no binding (tested: 3000 nM)
B6 | no binding (tested: 3000 nM)
B7 | no binding (tested: 3000 nM)

Target: T1, human IL-2Rβ
Experiment: SPR, kinetic fit

Binder | Kd [nM]
B8 | 513
B9 | 315
B1 | 346
B2 | 479
B10 | 117

Target: T1, human IL-2Rβ
Experiment: SPR, steady state, fusion captured
Protocol: as §1, §2

Binder | Kd [nM]
B4 | 767
B6 | 315

Target: T2, human IL-15Rα
Experiment: SPR 37C

Binder | binding result
B11 | no binding
B12 | no binding
B13 | no binding
B14 | no binding
B3 | no binding

Target: T1, human IL-2Rβ
Experiment: SPR 37C

Binder | binding result
B12 | no binding
B13 | no binding
B14 | no binding

Target: T1, human IL-2Rβ
Experiment: SPR, fusion captured
Protocol: as §1, §2

Binder | Kd [nM]
B5 | > 1500
B7 | > 3000
